Experimental findings from patent US20260347476 (published 2026) are described below.

The target of experiment [1] is T1, IL-15Rbetagamma heterodimer (human, UniProt P14784).
T1 chain 1: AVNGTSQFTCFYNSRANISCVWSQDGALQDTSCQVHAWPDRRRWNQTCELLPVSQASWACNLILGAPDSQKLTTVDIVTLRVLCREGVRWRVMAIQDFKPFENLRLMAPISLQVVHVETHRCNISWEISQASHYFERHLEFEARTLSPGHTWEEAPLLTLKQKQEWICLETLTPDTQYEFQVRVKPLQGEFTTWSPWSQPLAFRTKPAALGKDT
T1 chain 2: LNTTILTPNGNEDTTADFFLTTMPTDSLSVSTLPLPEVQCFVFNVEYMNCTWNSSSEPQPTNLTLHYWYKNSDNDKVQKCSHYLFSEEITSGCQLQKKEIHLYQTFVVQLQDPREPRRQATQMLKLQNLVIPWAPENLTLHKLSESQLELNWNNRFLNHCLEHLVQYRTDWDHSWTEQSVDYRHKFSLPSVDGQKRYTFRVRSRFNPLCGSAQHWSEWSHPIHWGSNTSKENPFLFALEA
Description: SPR, anti-human Fc capture. For orientation: Surface plasmon resonance follows binding to a sensor surface in real time, without labels.

For experiment [2], the target named is T1, IL-15Rbetagamma heterodimer. In words: SPR, PD1 capture.
The target of experiment [3] is T2, IL-15 (human, UniProt P40933). In words: SPR, anti-human Fc capture.
In experiment [4] the target is T2, IL-15. In words: SPR, PD1 capture.

T2 sequence (P40933 49-162): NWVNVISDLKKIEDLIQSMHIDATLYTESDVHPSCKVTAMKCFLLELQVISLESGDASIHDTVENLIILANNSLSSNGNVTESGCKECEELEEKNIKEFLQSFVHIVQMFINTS

B1: RV36:IL-15 complex (antibody)
chain 1: QVQLVQSGAEVKKPGASVKVSCKASGYSFSSFGISWVRQAPGQGLEWLGWISAFNGYTKYAQKFQDRVTMTTDTSTSTAYMELRSLRSDDTAVYYCARDPAAWPLQQSLAWFDPWGQGTMVTVSS
chain 2: QSVLTQPPSASGTPGQRVTISCSGSTSNLKRNYVYWYQQLPGTAPKLLIYRDRRRPSGVPDRFSGSKSGTSASLAISGLRSEDEADYYCAWYDRELSEWVFGGGTKLTVL
chain 3: not shown
With B1, the dissociation constant Kd (as a rule, the equilibrium constant for the complex coming apart) amounted to 771 pM in experiment [1] and 1070 pM in experiment [2].

B2: RV18:IL-15 complex (antibody)
chain 1: QVQLVQSGAEVKKPGASVKVSCKASGYSFSSFGISWVRQAPGQGLEWLGWISAFNGYTKYAQKFQDRVTMTTDTSTSTAYMELRSLRSDDTAVYYCARDPAAWPLQQSLAWFDPWGQGTMVTVSS
chain 2: QSVLTQPPSASGTPGQRVTISCSGSTSNLKRNYVYWYQQLPGTAPKLLIYRDRRRPSGVPDRFSGSKSGTSASLAISGLRSEDEADYYCAWYDRELSEWVFGGGTKLTVL
chain 3: not shown
For B2, the Kd was 1020 pM in experiment [1] and 239 pM in experiment [2].

B3: RV26 IL-15 arm (antibody, V domains shown)
VH: QVQLVQSGAEVKKPGASVKVSCKASGYSFSSFGISWVRQAPGQGLEWLGWISAFNGYTKYAQKFQDRVTMTTDTSTSTAYMELRSLRSDDTAVYYCARDPAAWPLQQSLAWFDPWGQGTMVTVSS
VL: QSVLTQPPSASGTPGQRVTISCSGSTSNLKRNYVYWYQQLPGTAPKLLIYRDRRRPSGVPDRFSGSKSGTSASLAISGLRSEDEADYYCAWYDRELSEWVFGGGTKLTVL
B3 returned a Kd with IL-15 [3] of 396 pM.

B4: RV31:IL-15 complex (antibody)
chain 1: QVQLVQSGAEVKKPGASVKVSCKASGYSFSSFGISWVRQAPGQGLEWLGWISAFNGYTKYAQKFQDRVTMTTDTSTSTAYMELRSLRSDDTAVYYCARDPAAWPLQQSLAWFDPWGQGTMVTVSS
chain 2: QSVLTQPPSASGTPGQRVTISCSGSTSNLKRNYVYWYQQLPGTAPKLLIYRDRRRPSGVPDRFSGSKSGTSASLAISGLRSEDEADYYCAWYDRELSEWVFGGGTKLTVL
chain 3: not shown
Take B4: the dissociation constant Kd stood at 979 pM in experiment [1] and 981 pM in experiment [2].

B5: RV15 IL-15 arm (antibody, V domains shown)
VH: QVQLVQSGAEVKKPGASVKVSCKASGYSFSSFGISWVRQAPGQGLEWLGWISAFNGYTKYAQKFQDRVTMTTDTSTSTAYMELRSLRSDDTAVYYCARDPAAWPLQQSLAWFDPWGQGTMVTVSS
VL: QSVLTQPPSASGTPGQRVTISCSGSTSNLKRNYVYWYQQLPGTAPKLLIYRDRRRPSGVPDRFSGSKSGTSASLAISGLRSEDEADYYCAWYDRELSEWVFGGGTKLTVL
Regarding B5, the affinity with IL-15 [3], expressed as Kd, was 108 pM.

B6: RV18 IL-15 arm (antibody, V domains shown)
VH: QVQLVQSGAEVKKPGASVKVSCKASGYSFSSFGISWVRQAPGQGLEWLGWISAFNGYTKYAQKFQDRVTMTTDTSTSTAYMELRSLRSDDTAVYYCARDPAAWPLQQSLAWFDPWGQGTMVTVSS
VL: QSVLTQPPSASGTPGQRVTISCSGSTSNLKRNYVYWYQQLPGTAPKLLIYRDRRRPSGVPDRFSGSKSGTSASLAISGLRSEDEADYYCAWYDRELSEWVFGGGTKLTVL
Turning to B6, the affinity with IL-15 [3], expressed as Kd, was 76.9 pM.

B7: RV29:IL-15 complex (antibody)
chain 1: QVQLVQSGAEVKKPGASVKVSCKASGYSFSSFGISWVRQAPGQGLEWLGWISAFNGYTKYAQKFQDRVTMTTDTSTSTAYMELRSLRSDDTAVYYCARDPAAWPLQQSLAWFDPWGQGTMVTVSS
chain 2: QSVLTQPPSASGTPGQRVTISCSGSTSNLKRNYVYWYQQLPGTAPKLLIYRDRRRPSGVPDRFSGSKSGTSASLAISGLRSEDEADYYCAWYDRELSEWVFGGGTKLTVL
chain 3: not shown
For the molecule B7, the values for the Kd in experiment [1] and in experiment [2] were 732 pM and 720 pM, respectively.

B8: RV37 IL-15 arm (antibody, V domains shown)
VH: QVQLVQSGAEVKKPGASVKVSCKASGYSFSSFGISWVRQAPGQGLEWLGWISAFNGYTKYAQKFQDRVTMTTDTSTSTAYMELRSLRSDDTAVYYCARDPAAWPLQQSLAWFDPWGQGTMVTVSS
VL: QSVLTQPPSASGTPGQRVTISCSGSTSNLKRNYVYWYQQLPGTAPKLLIYRDRRRPSGVPDRFSGSKSGTSASLAISGLRSEDEADYYCAWYDRELSEWVFGGGTKLTVL
Regarding B8, the Kd with IL-15 [3] was found to be 66.4 pM; with IL-15 [4], 227 pM.

B9: RV26:IL-15 complex (antibody)
chain 1: QVQLVQSGAEVKKPGASVKVSCKASGYSFSSFGISWVRQAPGQGLEWLGWISAFNGYTKYAQKFQDRVTMTTDTSTSTAYMELRSLRSDDTAVYYCARDPAAWPLQQSLAWFDPWGQGTMVTVSS
chain 2: QSVLTQPPSASGTPGQRVTISCSGSTSNLKRNYVYWYQQLPGTAPKLLIYRDRRRPSGVPDRFSGSKSGTSASLAISGLRSEDEADYYCAWYDRELSEWVFGGGTKLTVL
chain 3: not shown
For B9, the values for the Kd in experiment [1] and in experiment [2] were 1360 pM and 1530 pM, respectively.

B10: RV29 IL-15 arm (antibody, V domains shown)
VH: QVQLVQSGAEVKKPGASVKVSCKASGYSFSSFGISWVRQAPGQGLEWLGWISAFNGYTKYAQKFQDRVTMTTDTSTSTAYMELRSLRSDDTAVYYCARDPAAWPLQQSLAWFDPWGQGTMVTVSS
VL: QSVLTQPPSASGTPGQRVTISCSGSTSNLKRNYVYWYQQLPGTAPKLLIYRDRRRPSGVPDRFSGSKSGTSASLAISGLRSEDEADYYCAWYDRELSEWVFGGGTKLTVL
Regarding B10, the equilibrium dissociation constant (Kd) in the experiment with IL-15 [3] was found to be 114 pM; with IL-15 [4] it was 339 pM.

B11: RV32:IL-15 complex (antibody)
chain 1: QVQLVQSGAEVKKPGASVKVSCKASGYSFSSFGISWVRQAPGQGLEWLGWISAFNGYTKYAQKFQDRVTMTTDTSTSTAYMELRSLRSDDTAVYYCARDPAAWPLQQSLAWFDPWGQGTMVTVSS
chain 2: QSVLTQPPSASGTPGQRVTISCSGSTSNLKRNYVYWYQQLPGTAPKLLIYRDRRRPSGVPDRFSGSKSGTSASLAISGLRSEDEADYYCAWYDRELSEWVFGGGTKLTVL
chain 3: not shown
B11: the Kd in experiment [1] was determined as 742 pM; in experiment [2], 1450 pM.

B12: RV1:IL-15 complex (antibody)
chain 1: QVQLVQSGAEVKKPGASVKVSCKASGYSFSSFGISWVRQAPGQGLEWLGWISAFNGYTKYAQKFQDRVTMTTDTSTSTAYMELRSLRSDDTAVYYCARDPAAWPLQQSLAWFDPWGQGTMVTVSS
chain 2: QSVLTQPPSASGTPGQRVTISCSGSTSNLKRNYVYWYQQLPGTAPKLLIYRDRRRPSGVPDRFSGSKSGTSASLAISGLRSEDEADYYCAWYDRELSEWVFGGGTKLTVL
chain 3: not shown
As for B12, in experiment [1], the Kd amounted to 705 pM.

B13: RV17:IL-15 complex (antibody)
chain 1: QVQLVQSGAEVKKPGASVKVSCKASGYSFSSFGISWVRQAPGQGLEWLGWISAFNGYTKYAQKFQDRVTMTTDTSTSTAYMELRSLRSDDTAVYYCARDPAAWPLQQSLAWFDPWGQGTMVTVSS
chain 2: QSVLTQPPSASGTPGQRVTISCSGSTSNLKRNYVYWYQQLPGTAPKLLIYRDRRRPSGVPDRFSGSKSGTSASLAISGLRSEDEADYYCAWYDRELSEWVFGGGTKLTVL
chain 3: not shown
The molecule B13 gave a Kd in experiment [1] of 990 pM.

B14: RV15:IL-15 complex (antibody)
chain 1: QVQLVQSGAEVKKPGASVKVSCKASGYSFSSFGISWVRQAPGQGLEWLGWISAFNGYTKYAQKFQDRVTMTTDTSTSTAYMELRSLRSDDTAVYYCARDPAAWPLQQSLAWFDPWGQGTMVTVSS
chain 2: QSVLTQPPSASGTPGQRVTISCSGSTSNLKRNYVYWYQQLPGTAPKLLIYRDRRRPSGVPDRFSGSKSGTSASLAISGLRSEDEADYYCAWYDRELSEWVFGGGTKLTVL
chain 3: not shown
Take B14: the dissociation constant (Kd) in experiment [1] came to 804 pM; in experiment [2], 722 pM.

B15: RV19 IL-15 arm (antibody, V domains shown)
VH: QVQLVQSGAEVKKPGASVKVSCKASGYSFSSFGISWVRQAPGQGLEWLGWISAFNGYTKYAQKFQDRVTMTTDTSTSTAYMELRSLRSDDTAVYYCARDPAAWPLQQSLAWFDPWGQGTMVTVSS
VL: QSVLTQPPSASGTPGQRVTISCSGSTSNLKRNYVYWYQQLPGTAPKLLIYRDRRRPSGVPDRFSGSKSGTSASLAISGLRSEDEADYYCAWYDRELSEWVFGGGTKLTVL
In the experiment with IL-15 [3], B15 displayed a Kd of 84.7 pM.

B16: RV1 (anti-IL-15 mAb DISC0280) (antibody, V domains shown)
VH: QVQLVQSGAEVKKPGASVKVSCKASGYSFSSFGISWVRQAPGQGLEWLGWISAFNGYTKYAQKFQDRVTMTTDTSTSTAYMELRSLRSDDTAVYYCARDPAAWPLQQSLAWFDPWGQGTMVTVSS
VL: QSVLTQPPSASGTPGQRVTISCSGSTSNLKRNYVYWYQQLPGTAPKLLIYRDRRRPSGVPDRFSGSKSGTSASLAISGLRSEDEADYYCAWYDRELSEWVFGGGTKLTVL
B16 came in with a dissociation constant (Kd) with IL-15 [3] of 349 pM.

B17: RV19:IL-15 complex (antibody)
chain 1: QVQLVQSGAEVKKPGASVKVSCKASGYSFSSFGISWVRQAPGQGLEWLGWISAFNGYTKYAQKFQDRVTMTTDTSTSTAYMELRSLRSDDTAVYYCARDPAAWPLQQSLAWFDPWGQGTMVTVSS
chain 2: QSVLTQPPSASGTPGQRVTISCSGSTSNLKRNYVYWYQQLPGTAPKLLIYRDRRRPSGVPDRFSGSKSGTSASLAISGLRSEDEADYYCAWYDRELSEWVFGGGTKLTVL
chain 3: not shown
As for B17, in experiment [1], the Kd is 1170 pM.

B18: RV17 IL-15 arm (antibody, V domains shown)
VH: QVQLVQSGAEVKKPGASVKVSCKASGYSFSSFGISWVRQAPGQGLEWLGWISAFNGYTKYAQKFQDRVTMTTDTSTSTAYMELRSLRSDDTAVYYCARDPAAWPLQQSLAWFDPWGQGTMVTVSS
VL: QSVLTQPPSASGTPGQRVTISCSGSTSNLKRNYVYWYQQLPGTAPKLLIYRDRRRPSGVPDRFSGSKSGTSASLAISGLRSEDEADYYCAWYDRELSEWVFGGGTKLTVL
The molecule B18 displayed a dissociation constant Kd with IL-15 [3] of 106 pM.
